Measurements from patent US5756291.
Where two headings read alike, the source gives them in different places.

What was measured:
[1] = molecular target: kallikrein (UniProt P03952+P03952); test: filter; details: ~1 uM protein
[2] = molecular target: thrombin (alpha, Factor IIa) (Homo sapiens) (UniProt P00734+P00734); test: filter

kallikrein, sequence (P03952 20-390, chain 1 of 2): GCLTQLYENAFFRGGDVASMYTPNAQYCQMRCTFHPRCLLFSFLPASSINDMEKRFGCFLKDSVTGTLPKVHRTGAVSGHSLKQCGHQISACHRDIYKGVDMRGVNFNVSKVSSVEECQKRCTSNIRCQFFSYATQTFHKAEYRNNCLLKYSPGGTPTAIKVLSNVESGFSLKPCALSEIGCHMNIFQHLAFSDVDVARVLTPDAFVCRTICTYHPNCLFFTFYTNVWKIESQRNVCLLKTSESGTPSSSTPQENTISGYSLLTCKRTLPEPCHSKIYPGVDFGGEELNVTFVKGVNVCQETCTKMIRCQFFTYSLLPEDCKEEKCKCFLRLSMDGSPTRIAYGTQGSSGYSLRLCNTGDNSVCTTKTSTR
kallikrein, sequence (P03952 391-638, chain 2 of 2): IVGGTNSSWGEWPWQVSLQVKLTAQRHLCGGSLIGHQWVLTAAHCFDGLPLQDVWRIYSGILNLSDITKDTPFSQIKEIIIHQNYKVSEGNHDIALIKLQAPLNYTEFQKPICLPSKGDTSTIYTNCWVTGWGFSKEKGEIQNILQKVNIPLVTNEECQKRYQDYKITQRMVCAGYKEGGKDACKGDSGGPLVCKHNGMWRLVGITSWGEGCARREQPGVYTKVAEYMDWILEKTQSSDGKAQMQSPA

CGGGGAGAGGTTGGTGTGGTTGGCAATGGCTAGAGTAGTGACGTTTTCGCGGTGAGGTCC
binding signal [1]: < 0.5 % bound

TAGAATACTCAAGCTTCGACGNNNNNNNNNNNNNNNNNNNNAGTTTGGATCCCCGGGTAC [Round 6 pool prepared with thymidine]
Kd [2]: > 10 µM

TAGAATACTCAAGCTTCGACGNNNNNNNNNNNNNNNNNNNNAGTTTGGATCCCCGGGTAC [pentynyl-dU Round 6 pool]
Kd ([2]; 5-(1-pentynyl)-dU replacing T in amplified region): 0.4 µM

TAGAATACTCAAGCTTCGACGNNNNNNNNNNNNNNNNNNNNAGTTTGGATCCCCGGGTAC [unselected pentynyl-dU pool]
Kd ([2]; 5-(1-pentynyl)-dU replacing T in amplified region, unit micro sign lost in print): > 10 µM
